From the Human Domainome abundance scans (Beltran et al. 2025)

B1: Homeobox protein cut-like 1, residues 548 to 629; numbered along this chain, P39880 (parent)
chain: GEEMDTAEIARQVKEQLIKHNIGQRIFGHYVLGLSQGSVSEILARPKPWNKLTVRGKEPFHKMKQFLSDEQNILALRSIQGR

Variants of: B1
Assay: abundance fitness (aPCA) (normalised: wild type 0, dead -1); higher = more abundant; growth selection in yeast, the domain comes from the species named
Details: Homo sapiens

Abundance fitness: each site, then its substitutions
D5: A -0.204 | E -0.163 | F -0.644 | G -0.395 | H -0.294 | I -0.689 | K -0.274 | L -0.817 | M -0.638 | N -0.076 | P -0.269 | Q -0.226 | R -0.541 | S -0.082 | T -0.006 | V -0.537 | W -0.782 | Y -0.561
T6: A -0.697 | C -0.66 | D -0.859 | E -0.921 | F -0.822 | G -0.946 | I -1.14 | K -0.81 | L -1.02 | M -1.01 | P -0.385 | R -0.896 | S -0.468 | V -0.839 | W -0.884 | Y -0.901
A7: C -0.081 | D -0.136 | E -0.029 | F -0.053 | G -0.17 | H 0.01 | K -0.003 | L -0.082 | M -0.107 | P -0.532 | Q -0.028 | R -0.093 | S -0.09 | V -0.121 | W -0.143 | Y -0.093
E8: A -0.118 | C -0.219 | D -0.032 | F -0.22 | G -0.233 | H -0.135 | I -0.22 | K -0.113 | L -0.091 | M -0.149 | N -0.211 | P -0.979 | Q -0.104 | R -0.17 | S -0.119 | T -0.118 | V -0.135 | W -0.231
I9: A -0.695 | C -0.459 | D -0.428 | E -0.517 | F -0.547 | G -0.623 | H -0.56 | K -0.508 | L -0.13 | M -0.292 | N -0.643 | P -0.605 | Q -0.583 | R -0.69 | S -0.672 | T -0.267 | V -0.103 | W -0.82 | Y -0.495
A10: D -0.835 | E -0.822 | G -0.552 | H -1.24 | I -0.249 | K -0.746 | L -0.874 | M -0.947 | N -0.692 | P -0.744 | Q -0.798 | R -0.792 | S -0.151 | T -0.08 | V 0.032 | W -0.755 | Y -0.863
R11: A -0.157 | C -0.327 | D -0.274 | F -0.243 | G -0.18 | H -0.102 | K 0.069 | M -0.112 | N -0.205 | P -0.646 | Q -0.24 | T -0.131 | V -0.311 | W -0.506 | Y -0.249
V13: A -0.415 | C -0.238 | D -0.486 | E -0.608 | F -0.911 | G -0.53 | H -0.574 | I -0.102 | K -0.548 | L -0.423 | M -0.263 | N -0.511 | P -0.564 | Q -0.574 | R -0.586 | S -0.56 | T -0.198 | W -0.721 | Y -0.812
K14: A -0.324 | C -0.263 | D -0.343 | E -0.282 | H 0.1 | I -0.24 | L -0.401 | N -0.058 | R -0.111 | S 0.565 | T -0.396
E15: A -0.023 | C 0.094 | D -0.211 | F -0.363 | G -0.332 | I -0.003 | K -0.573 | L -0.03 | N -0.328 | Q -0.077 | R -0.207 | S 0.034 | T -0.143 | V -0.19 | Y -0.091
Q16: H -0.113
L17: A -0.724 | C -0.493
